Positions count from the first letter of the chain named. Blank lines part the entries; values can stand above or below the binder they belong to. Where no end group is shown, it is not given here. Me3 = N6,N6,N6-trimethyl (lysine)
Columns and labels:
H3K4me3 (1-12) peptide = target: T1, H3K4me3 (1-12) peptide (Homo sapiens); experiment: tryptophan fluorescence
T1 chain: H-ARTK(Me3)QTARKSTG

[1] = target: T2, 15N-labeled WT ZZZ3-ZZ used in NMR titrations (human); experiment: NMR
T2 chain: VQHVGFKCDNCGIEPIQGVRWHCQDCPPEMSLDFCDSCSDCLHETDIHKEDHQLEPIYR

[2] = target: T3, 15N-labeled ZZZ3-ZZ F821A used in NMR titrations (human); experiment: NMR
T3 chain: T2 chain with F6A

Kd (H3K4me3 (1-12) peptide): 22 µM
B1: ZZZ3 ZZ domain (aa 800–903), GST cleaved (domain or fragment)
chain: KLKKQKLQQMQAESGFVQHVGFKCDNCGIEPIQGVRWHCQDCPPEMSLDFCDSCSDCLHETDIHKEDHQLEPIYRSETFLDRDYCVSQGTSYNYLDPNYFPANR

Kd [1]: 42 µM
Kd [2]: 400 µM
Binder: ARTKQTARKSTG [unmodified H3 peptide of the tryptophan fluorescence and NMR titration experiments]

Kd [1]: 14 µM
Kd [2]: 480 µM
Binder: ARTK(Ac)QTAR [H3K4ac peptide of the tryptophan fluorescence and NMR titration experiments]

Reference: publication PMC6138639 (2018)
